The record followed here is patent US20190055316A1 (published 2019).

The target of assay [1] is 151. The experiment in a line: Biacore. For orientation: SPR reads the build-up and loss of mass on a sensor chip optically.
In assay [2] the target is 158.3. The experiment in a line: Biacore.
The target in assay [3] is 2.69 LC2. The experiment in a line: Biacore.
The target in assay [4] is 151. As to the kind of experiment: KinExA.
Assay [5] addresses 158.3. The experiment in a line: KinExA. For orientation: A kinetic exclusion assay measures how much of one partner remains free in solution.

B1: Soluble human MSLN (other)
chain: EVEKTACPSGKKAREIDESLIFYKKWELEACVDAALLATQMDRVNAIPFTYEQLDVLKHKLDELYPQGYPESVIQHLGYLFLKMSPEDIRKWNVTSLETLKALLEVNKGHEMSPQAPRRPLPQVATLIDRFVKGRGQLDKDTLDTLTAFYPGYLCSLSPEELSSVPPSSIWAVRPQDLDTCDPRQLDVLYPKARLAFQNMNGSEYFVKIQSFLGGAPTEDLKALSQQNVSMDLATFMKLRTDAVLPLTVAEVQKLLGPHVEGLKAEERHRPVRDWILRQRQDDLDTLGLGLQGGIPNGYLVLDLSMQEALS
Consider B1, for which the equilibrium dissociation constant (Kd) (commonly the constant that tells how readily two partners part at equilibrium) is 17.4 nM in assay [1], 2.4 nM in assay [2] and 0.228 nM in assay [3].

B2: Native hu MSLN (cells) (other)
chain: B1 chain
As to B2, the equilibrium dissociation constant (Kd) amounted to 0.03 nM in assay [4] and 0.0122 nM in assay [5].
